The text below walks through data of patent US20050221287A1 (CONSEJO SUPERIOR DE INVESTIGACIONES CIENTIFICAS PHARMACIA …, published 2005).

Assay [1] deals with T1, STAT6 (human, UniProt P42226 2-847).
T1 sequence (looked up): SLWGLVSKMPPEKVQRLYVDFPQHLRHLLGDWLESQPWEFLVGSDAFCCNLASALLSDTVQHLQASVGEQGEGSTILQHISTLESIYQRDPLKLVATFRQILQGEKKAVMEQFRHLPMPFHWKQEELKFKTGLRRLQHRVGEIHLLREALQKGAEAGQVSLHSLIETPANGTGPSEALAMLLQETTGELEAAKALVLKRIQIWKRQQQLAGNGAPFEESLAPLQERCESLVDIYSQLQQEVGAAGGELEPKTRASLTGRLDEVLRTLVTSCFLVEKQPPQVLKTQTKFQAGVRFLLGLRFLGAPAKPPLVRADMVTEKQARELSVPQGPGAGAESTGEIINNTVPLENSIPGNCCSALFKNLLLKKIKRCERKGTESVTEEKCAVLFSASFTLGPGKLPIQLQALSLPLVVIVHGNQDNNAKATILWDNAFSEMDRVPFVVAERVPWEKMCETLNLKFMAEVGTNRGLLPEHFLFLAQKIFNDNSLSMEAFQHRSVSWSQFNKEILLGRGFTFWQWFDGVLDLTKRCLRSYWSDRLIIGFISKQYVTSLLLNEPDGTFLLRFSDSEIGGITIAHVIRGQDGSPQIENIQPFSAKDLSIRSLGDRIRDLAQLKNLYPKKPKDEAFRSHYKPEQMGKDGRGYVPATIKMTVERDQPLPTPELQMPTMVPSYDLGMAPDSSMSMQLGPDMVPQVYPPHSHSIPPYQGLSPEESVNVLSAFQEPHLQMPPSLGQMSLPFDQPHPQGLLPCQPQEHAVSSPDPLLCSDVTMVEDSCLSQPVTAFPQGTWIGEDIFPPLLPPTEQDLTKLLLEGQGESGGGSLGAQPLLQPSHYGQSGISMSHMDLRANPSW
Nature of the assay: association with CXCR4 in CXCL12-stimulated IM-9 cells (data not shown).

Assay [2] has as its target T2, STAT4 (human, UniProt Q14765 1-748).
T2 sequence (looked up): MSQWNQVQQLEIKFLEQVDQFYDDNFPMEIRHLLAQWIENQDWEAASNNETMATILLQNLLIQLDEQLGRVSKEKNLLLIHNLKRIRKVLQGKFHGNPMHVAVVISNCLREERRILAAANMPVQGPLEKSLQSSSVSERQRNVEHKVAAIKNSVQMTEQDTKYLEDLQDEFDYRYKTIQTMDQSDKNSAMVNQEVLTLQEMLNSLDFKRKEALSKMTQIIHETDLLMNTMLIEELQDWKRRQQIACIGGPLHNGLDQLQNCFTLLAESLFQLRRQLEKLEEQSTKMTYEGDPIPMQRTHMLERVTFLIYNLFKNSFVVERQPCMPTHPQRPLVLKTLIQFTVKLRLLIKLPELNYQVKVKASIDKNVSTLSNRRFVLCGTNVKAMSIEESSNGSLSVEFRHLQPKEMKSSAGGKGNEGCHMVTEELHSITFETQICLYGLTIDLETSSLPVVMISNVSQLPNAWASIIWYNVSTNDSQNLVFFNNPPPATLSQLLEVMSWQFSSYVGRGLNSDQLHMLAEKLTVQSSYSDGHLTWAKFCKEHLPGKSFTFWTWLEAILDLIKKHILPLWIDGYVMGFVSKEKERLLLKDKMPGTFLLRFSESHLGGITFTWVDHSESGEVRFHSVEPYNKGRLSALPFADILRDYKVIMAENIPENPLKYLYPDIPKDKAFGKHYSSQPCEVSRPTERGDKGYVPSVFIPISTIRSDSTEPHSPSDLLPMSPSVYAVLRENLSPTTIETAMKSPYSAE
The assay is described as above.

Assay [3] addresses STAT3 (human, UniProt P40763 2-770, limits assumed). Nature of the assay: association with CXCR4 in CXCL12-stimulated IM-9 cells.
The target in assay [4] is STAT2 (human, UniProt P52630 1-851). The assay is described as above.
Chain of STAT2 (P52630 whole entry): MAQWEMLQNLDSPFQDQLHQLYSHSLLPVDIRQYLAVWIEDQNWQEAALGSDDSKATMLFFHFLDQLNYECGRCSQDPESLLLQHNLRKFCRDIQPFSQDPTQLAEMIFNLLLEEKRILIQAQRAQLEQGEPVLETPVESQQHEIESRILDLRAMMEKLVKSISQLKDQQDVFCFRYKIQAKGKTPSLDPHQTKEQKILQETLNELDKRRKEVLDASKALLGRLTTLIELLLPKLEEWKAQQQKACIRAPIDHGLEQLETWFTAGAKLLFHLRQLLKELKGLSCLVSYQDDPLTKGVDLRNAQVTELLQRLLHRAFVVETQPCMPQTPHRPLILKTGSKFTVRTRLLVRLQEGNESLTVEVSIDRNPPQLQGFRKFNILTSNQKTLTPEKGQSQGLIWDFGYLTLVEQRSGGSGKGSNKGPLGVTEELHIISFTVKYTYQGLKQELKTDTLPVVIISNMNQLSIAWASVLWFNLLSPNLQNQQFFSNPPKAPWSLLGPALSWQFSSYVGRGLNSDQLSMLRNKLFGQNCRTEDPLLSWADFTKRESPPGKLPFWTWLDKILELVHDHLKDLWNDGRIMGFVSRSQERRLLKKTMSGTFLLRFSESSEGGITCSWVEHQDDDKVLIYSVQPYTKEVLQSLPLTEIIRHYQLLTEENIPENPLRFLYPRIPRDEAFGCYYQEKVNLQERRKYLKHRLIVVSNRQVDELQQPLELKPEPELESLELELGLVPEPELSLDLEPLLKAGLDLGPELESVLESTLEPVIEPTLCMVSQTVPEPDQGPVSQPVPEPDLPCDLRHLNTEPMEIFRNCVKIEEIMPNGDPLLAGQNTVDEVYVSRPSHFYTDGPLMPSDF
Assay [5] deals with T3, JAK1 (human, UniProt P23458 1-1154).
T3 construct: Endogenous protein of IM-9 cell lysates
T3 sequence (P23458 whole entry): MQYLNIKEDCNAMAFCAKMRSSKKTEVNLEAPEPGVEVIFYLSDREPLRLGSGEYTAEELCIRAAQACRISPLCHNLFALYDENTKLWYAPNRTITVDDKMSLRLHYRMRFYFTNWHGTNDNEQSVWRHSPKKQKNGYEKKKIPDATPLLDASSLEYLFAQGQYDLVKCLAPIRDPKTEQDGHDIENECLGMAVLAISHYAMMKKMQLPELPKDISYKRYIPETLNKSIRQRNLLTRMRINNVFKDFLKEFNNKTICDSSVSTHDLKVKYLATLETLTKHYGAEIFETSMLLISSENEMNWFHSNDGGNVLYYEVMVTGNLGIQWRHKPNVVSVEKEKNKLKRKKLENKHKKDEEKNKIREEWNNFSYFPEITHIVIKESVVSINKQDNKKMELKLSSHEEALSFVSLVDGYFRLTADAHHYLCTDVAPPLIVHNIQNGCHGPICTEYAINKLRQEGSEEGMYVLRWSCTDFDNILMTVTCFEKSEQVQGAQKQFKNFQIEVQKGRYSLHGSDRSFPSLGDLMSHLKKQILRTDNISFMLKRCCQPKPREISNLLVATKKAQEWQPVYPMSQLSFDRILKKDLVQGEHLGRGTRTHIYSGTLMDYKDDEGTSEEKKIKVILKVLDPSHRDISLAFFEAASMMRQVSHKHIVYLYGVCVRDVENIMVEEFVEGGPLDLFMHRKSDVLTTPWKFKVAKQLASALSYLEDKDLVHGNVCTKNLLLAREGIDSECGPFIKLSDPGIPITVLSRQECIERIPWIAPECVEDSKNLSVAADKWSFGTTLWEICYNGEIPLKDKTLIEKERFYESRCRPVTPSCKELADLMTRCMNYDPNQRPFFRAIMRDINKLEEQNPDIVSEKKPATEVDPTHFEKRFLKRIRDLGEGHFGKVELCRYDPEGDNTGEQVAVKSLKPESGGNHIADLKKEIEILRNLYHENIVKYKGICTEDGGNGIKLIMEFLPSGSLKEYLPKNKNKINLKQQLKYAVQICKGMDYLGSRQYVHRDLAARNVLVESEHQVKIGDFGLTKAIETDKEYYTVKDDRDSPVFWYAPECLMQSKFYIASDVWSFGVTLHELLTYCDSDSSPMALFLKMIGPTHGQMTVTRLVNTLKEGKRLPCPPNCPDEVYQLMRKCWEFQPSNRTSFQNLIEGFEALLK
Described as above.

Assay [6] has as its target T4, STAT1 (human, UniProt P42224 2-750, limits assumed).
T4 sequence (looked up): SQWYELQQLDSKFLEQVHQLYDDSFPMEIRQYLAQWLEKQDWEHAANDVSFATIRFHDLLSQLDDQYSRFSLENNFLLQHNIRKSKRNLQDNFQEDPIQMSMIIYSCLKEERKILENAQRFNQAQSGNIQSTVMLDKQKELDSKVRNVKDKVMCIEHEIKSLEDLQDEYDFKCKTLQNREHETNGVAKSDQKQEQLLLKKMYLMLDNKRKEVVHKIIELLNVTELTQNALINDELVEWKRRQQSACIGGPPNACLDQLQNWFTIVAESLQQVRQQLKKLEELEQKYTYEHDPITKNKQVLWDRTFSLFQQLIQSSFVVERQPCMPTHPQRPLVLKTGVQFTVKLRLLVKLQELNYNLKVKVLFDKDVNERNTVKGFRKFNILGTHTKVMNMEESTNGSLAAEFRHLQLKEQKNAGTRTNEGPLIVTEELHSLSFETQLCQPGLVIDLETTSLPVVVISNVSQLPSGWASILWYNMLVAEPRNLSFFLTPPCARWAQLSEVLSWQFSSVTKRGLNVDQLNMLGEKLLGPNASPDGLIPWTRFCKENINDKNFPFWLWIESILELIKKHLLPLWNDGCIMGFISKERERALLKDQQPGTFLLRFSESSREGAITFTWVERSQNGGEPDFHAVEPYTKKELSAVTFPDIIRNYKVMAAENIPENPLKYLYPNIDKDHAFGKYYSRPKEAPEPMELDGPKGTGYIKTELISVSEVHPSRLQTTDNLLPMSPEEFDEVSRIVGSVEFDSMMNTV
Described as above.

Chain of STAT3 (P40763 2-770 limits assumed): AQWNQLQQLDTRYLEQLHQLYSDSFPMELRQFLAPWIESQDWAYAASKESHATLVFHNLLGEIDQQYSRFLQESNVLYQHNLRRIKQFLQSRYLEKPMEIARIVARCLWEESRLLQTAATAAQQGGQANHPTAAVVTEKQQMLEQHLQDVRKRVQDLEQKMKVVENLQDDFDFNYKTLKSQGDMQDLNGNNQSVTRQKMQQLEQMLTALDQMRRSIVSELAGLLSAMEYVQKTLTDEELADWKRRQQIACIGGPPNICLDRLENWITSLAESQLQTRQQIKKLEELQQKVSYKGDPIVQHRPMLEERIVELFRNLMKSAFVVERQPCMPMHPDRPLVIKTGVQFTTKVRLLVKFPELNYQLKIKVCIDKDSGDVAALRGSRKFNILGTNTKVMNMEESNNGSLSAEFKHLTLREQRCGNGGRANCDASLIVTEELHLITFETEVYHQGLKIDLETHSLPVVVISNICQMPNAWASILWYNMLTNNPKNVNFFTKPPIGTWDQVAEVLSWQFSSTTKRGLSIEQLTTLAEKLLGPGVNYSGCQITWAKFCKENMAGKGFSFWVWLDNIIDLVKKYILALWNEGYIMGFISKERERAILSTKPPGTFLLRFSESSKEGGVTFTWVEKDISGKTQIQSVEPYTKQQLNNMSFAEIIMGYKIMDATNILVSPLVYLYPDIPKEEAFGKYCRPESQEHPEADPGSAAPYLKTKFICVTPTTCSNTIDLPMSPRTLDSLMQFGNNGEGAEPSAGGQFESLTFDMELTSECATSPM

B1: CXCR4 (receptor, human, UniProt P61073 1-352, looked up)
chain: MEGISIYTSDNYTEEMGSGDYDSMKEPCFREENANFNKIFLPTIYSIIFLTGIVGNGLVILVMGYQKKLRSMTDKYRLHLSVADLLFVITLPFWAVDAVANWYFGNFLCKAVHVIYTVNLYSSVLILAFISLDRYLAIVHATNSQRPRKLLAEKVVYVGVWIPALLLTIPDFIFANVSEADDRYICDRFYPNDLWVVVFQFQHIMVGLILPGIVILSCYCIIISKLSHSKGHQKRKALKTTVILILAFFACWLPYYIGISIDSFILLEIIKQGCEFENTVHKWISITEALAFFHCCLNPILYAFLGAKFKTSAQHALTSVSRGSSLKILSKGKRGGHSSVSTESESSSFHSS
notes: whole, on cells; Endogenous receptor of IM-9 cells: on the cell surface in flow cytometry, immunoprecipitated from digitonin lysates in the co-immunoprecipitations; also called CXCR4 receptor; the CXCR4
On to B1, for which the binding result in assay [1] is reported as “no binding”; in assay [2], “no binding”; in assay [3] it was “binds”; in assay [4], “binds”; in assay [5] it was “binds”; in assay [6], “binds”.
